For orientation: Tm means the temperature at the midpoint of the melting transition.

3 substances from FireProtDB (doi:10.1016/j.ijbiomac.2008.12.016) can be followed below.

Values joined by “and” are separate entries in the source; they are usually repeats but may differ in a detail not shown here. Identical values can stand only once.

The conditions of this series: Oryctolagus cuniculus, pH 8, CD, Tris_HCl 10 mM; for denaturant midpoint (higher = more stable) / unfolding free energy: 25 °C, GdnHCl, reversible: Yes; for unfolding free energy: transition: 3; for Tm / change of melting temperature, mutant - wild type (higher = more stable): Thermal, reversible: No.

Chain of Creatine kinase M-type wild type, P00563 (P00563 whole entry): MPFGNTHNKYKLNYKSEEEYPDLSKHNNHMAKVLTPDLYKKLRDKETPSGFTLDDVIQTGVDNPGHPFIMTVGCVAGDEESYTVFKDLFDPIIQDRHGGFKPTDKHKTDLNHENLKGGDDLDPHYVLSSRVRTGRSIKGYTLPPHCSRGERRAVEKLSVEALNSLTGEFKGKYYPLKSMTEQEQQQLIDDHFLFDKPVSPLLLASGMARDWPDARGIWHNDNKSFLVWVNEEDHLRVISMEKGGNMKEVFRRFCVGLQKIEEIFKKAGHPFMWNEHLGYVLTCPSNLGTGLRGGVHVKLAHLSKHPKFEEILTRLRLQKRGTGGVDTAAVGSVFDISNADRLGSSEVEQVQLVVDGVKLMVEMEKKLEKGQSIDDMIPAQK
Chain of Creatine kinase M-type D122A, P00563 (P00563 whole entry D122A): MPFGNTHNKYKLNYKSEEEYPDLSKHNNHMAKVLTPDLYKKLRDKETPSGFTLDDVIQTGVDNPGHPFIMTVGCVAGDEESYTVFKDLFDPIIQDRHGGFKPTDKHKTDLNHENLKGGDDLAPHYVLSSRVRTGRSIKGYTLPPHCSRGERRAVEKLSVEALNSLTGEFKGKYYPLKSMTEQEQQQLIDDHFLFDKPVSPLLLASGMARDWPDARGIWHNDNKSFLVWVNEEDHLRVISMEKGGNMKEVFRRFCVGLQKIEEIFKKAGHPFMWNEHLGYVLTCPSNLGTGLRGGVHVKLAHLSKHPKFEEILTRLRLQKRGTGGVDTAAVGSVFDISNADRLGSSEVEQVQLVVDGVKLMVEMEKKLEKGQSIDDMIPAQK
Chain of Creatine kinase M-type D122N, P00563 (P00563 whole entry D122N): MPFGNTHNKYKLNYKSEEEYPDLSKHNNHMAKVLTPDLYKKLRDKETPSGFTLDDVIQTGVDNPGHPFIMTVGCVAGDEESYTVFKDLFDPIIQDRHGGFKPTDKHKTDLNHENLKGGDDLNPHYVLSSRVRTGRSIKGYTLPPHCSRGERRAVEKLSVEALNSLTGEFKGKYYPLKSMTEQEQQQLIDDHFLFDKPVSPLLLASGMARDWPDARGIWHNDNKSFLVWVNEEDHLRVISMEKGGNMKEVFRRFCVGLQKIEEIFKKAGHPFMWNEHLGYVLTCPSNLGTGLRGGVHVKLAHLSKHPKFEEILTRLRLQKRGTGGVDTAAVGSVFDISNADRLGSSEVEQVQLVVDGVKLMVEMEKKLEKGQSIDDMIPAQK

Regarding Creatine kinase M-type D122A, P00563, for the setting “structure 2CRK”, the “denaturant midpoint (higher = more stable)” value amounted to 0.24 M; the unfolding free energy was 3.59 kcal/mol; the Tm stood at 59.1 °C; the “change of melting temperature, mutant - wild type (higher = more stable)” value is 0 °C.
As for Creatine kinase M-type D122N, P00563, where the note is “structure 2CRK”, the “denaturant midpoint (higher = more stable)” value amounted to 0.29 M; the unfolding free energy was 3.59 kcal/mol and 2.87 kcal/mol; the Tm came to 61.2 °C; the “change of melting temperature, mutant - wild type (higher = more stable)” value is 2.1 °C.
“Creatine kinase M-type wild type, P00563”: the unfolding free energy is 3.59 kcal/mol and 4.06 kcal/mol; the Tm stood at 59.1 °C.
